Assay results published in patent US20050142568A1 (published 2005).

Tests used:
Assay in all cases: GST pull-down, 35S-Met protein vs GST fusion; - means no detectable binding (footnote a)
GST-CRN-4 = target: T1, GST-CRN-4 (C. elegans, UniProt Q10905 1-298)
T1 construct: also called CRN-4 GST-fusion protein; not shown: glutathione S-transferase tag encoded by vector pGEX4T-2
T1 sequence (looked up): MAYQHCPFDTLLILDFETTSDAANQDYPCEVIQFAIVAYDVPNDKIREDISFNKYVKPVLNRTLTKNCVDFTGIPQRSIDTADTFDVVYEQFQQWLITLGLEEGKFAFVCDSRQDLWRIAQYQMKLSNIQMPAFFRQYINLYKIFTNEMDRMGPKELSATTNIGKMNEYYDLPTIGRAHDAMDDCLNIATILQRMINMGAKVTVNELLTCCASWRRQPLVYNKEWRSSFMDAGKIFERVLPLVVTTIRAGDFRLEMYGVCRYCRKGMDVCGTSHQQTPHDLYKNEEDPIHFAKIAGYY
Protocol: (§1) GST fusion protein pull-down assays were performed as described in J. Parrish, H. Metters, L. Chen, D. Xue, Proc. Natl. Acad. Sci. U.S.A. 97, 11916 (2000). Purified GST or GST-fusion proteins (5 μg each) immobilized on glutathione sepharose beads were incubated with ³⁵S-Methionine labeled proteins at 4° C. for 2 hours. The beads were washed extensively and the bound proteins were resolved on a 12% SDS-PAGE and visualized by autoradiography. [0103] cDNAs corresponding to the ORFs were cloned into the pPD129.36 vector via its Nhe I and Xho I sites or the Xho I site alone. Full-length cDNAs were subcloned into the pGEX4T-2 vector for generating GST fusion proteins and for further protein purification and into the pcDNA3.1 vector for in vitro transcription/translation experiments.
(§2) ^aInteractions were evaluated relative to background binding of ³⁵S-Methionine labeled Luciferase to GST-fusion proteins and ³⁵S-Methionine labeled proteins to GST. “−” indicates no detectable binding, “+” indicates an interaction consistently observed above background levels, and “++” indicates a strong interaction. ^bBecause ³⁵S-Methionine labeled CRN-1 binds GST tightly, it was not possible to evaluate interactions between ³⁵S-CRN-1 and various GST-fusion proteins. ND, not determined.

GST-CRN-6 = target: T2, GST-CRN-6 (C. elegans, UniProt P08515 1-218 = GST; P34508 1-373)
T2 construct: Two crn-6 cDNAs (700 bp and 1.1 kb) were isolated; the longer one made the GST fusion; also called CRN-6 GST-fusion protein
Protocol: as §1, §2

[1] = target: T3, GST (glutathione-S transferase alone) (UniProt P08515 1-218 = GST)
T3 construct: Purified GST used as negative control bait on glutathione sepharose beads; also called OST
Protocol: as §1, §2

GST-CPS-6 = target: T4, GST-CPS-6 (C. elegans, UniProt Q95NM6 1-308)
T4 construct: GST at the N-terminus as in pGEX vectors; also called CPS-6 GST-fusion protein; not shown: glutathione S-transferase tag encoded by vector pGEX4T-2
T4 sequence (looked up): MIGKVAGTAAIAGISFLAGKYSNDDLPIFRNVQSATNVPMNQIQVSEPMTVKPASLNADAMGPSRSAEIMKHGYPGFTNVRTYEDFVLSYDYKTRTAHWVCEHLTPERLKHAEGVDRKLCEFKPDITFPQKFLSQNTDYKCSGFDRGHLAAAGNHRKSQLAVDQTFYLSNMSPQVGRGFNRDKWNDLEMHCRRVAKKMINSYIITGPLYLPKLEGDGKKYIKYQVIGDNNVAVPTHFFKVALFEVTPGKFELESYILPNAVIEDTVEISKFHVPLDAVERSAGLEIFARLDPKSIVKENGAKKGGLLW
Protocol: as §1, §2

GST-CRN-3 = target: T5, GST-CRN-3 (C. elegans, UniProt G5EBX6 1-876)
T5 construct: also called CRN-3 GST-fusion protein; not shown: glutathione S-transferase tag encoded by vector pGEX4T-2
T5 sequence: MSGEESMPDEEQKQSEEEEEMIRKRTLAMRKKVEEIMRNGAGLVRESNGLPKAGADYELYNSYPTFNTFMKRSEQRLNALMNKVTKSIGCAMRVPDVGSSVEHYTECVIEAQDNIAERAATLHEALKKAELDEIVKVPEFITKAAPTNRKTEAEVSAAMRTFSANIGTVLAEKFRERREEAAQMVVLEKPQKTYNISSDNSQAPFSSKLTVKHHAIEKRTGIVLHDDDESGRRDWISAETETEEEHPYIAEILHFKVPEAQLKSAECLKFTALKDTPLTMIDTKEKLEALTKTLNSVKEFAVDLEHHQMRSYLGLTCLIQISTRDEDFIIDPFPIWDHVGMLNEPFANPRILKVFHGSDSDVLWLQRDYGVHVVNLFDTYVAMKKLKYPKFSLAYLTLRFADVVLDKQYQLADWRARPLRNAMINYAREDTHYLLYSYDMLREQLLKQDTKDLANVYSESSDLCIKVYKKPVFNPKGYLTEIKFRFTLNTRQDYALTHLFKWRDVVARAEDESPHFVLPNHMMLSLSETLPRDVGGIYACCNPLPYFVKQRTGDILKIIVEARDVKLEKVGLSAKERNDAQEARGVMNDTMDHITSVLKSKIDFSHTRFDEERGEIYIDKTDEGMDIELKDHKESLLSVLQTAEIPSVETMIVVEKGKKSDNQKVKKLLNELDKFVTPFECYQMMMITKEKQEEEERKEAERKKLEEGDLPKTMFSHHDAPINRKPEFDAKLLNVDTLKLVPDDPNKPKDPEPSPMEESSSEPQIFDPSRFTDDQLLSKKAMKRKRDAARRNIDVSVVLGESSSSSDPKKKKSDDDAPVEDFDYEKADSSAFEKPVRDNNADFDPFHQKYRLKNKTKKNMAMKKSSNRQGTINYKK
Protocol: as §1, §2

GST-CRN-5 = target: T6, GST-CRN-5 (C. elegans, UniProt G5EG59 1-214)
T6 construct: also called CRN-5 GST-fusion protein; not shown: GST carrier and the linker of vector pGEX4T-2
T6 sequence: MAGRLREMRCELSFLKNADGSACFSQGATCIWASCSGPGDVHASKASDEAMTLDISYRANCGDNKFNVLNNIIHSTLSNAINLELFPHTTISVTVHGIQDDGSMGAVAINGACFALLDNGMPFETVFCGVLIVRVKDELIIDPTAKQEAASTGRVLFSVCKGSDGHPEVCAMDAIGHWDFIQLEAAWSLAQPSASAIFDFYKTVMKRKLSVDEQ
Protocol: as §1, §2

Measured: binding result

T2 sequence (P08515 1-218, tags or fused parts left off): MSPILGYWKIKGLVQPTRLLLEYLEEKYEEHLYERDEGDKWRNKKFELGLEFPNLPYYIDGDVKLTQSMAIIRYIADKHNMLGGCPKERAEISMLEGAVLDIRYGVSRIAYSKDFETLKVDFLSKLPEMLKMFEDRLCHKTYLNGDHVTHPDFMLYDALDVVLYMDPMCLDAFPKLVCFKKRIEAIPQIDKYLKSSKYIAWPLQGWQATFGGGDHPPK
T3 sequence (P08515 whole entry): as the sequence (P08515 1-218, tags or fused parts left off) above

B1: ^35S-Methionine labeled CRN-2 (enzyme, C. elegans)
chain: MALYELVDIGANLGHPSYQKDLNDVLDRAKQAGLSKIMVTGTSEKISHECADLVEKYPGFLYFTAGVHPHDAKDWNDGTLEALKKLQENPSCVAVGECGLDFNRNFSPQDVQKEVFAKQVDMAVKLQKPLFIHEREAHEDMVKILTAAGPSLPPAVIHCFTGTVVEAKKYLEMGFYIGLTGFLWKDRSDNGVQAGLRSGEIPIEKLVLETDAPYMYPKINDKKIPKEIKSLITPETEALHNFSSFNRNEPCSLAAVCELVAAFAGRDPKEVAKITTENAKKVYKLE
no binding: all assays above
